The results in this text go back to US20240409658A1 (Seagen, published 2024).

One may read the EC50 as the concentration giving half of the maximal effect. Lower therefore signals higher potency in that assay.

Like-named read-outs stand apart in the source and are kept apart here.

Experiment [1] addresses human CD228 (R&D Systems Custom02; Lot DCWR021505A) (human) (UniProt P08582). The experiment can be described thus: ELISA on plate-coated human CD228, pH 6.3.
For experiment [2] the target is unchanged. The experiment can be described thus: ELISA on plate-coated human CD228, pH 4.55. A general note: ELISA stands for enzyme-linked immunosorbent assay.
Experiment [3] has the same target. The experiment can be described thus: ELISA on plate-coated human CD228, pH 5.9.
The target is the same in experiment [4]. The experiment can be described thus: ELISA on plate-coated human CD228, pH 5.6.
The target is the same in experiment [5]. In words: ELISA on plate-coated human CD228, pH 4.
For experiment [6] the target is unchanged. In words: ELISA on plate-coated human CD228, pH 7.1.
Experiment [7] shares this target. In words: ELISA on plate-coated human CD228, pH 5.1.
For experiment [8] the target is unchanged. In words: ELISA on plate-coated human CD228, pH 7.4.
For experiment [9] the target is unchanged. In words: ELISA on plate-coated human CD228, pH 6.66.
For experiment [10] the target is unchanged. In words: ELISA on plate-coated human CD228, pH 7.5.
The target of experiment [11] is T1, human CD228 on the cell surface (RPMI-7951 cells stably expressing human CD228; A375 cells) (human) (UniProt P08582).
T1 sequence (looked up): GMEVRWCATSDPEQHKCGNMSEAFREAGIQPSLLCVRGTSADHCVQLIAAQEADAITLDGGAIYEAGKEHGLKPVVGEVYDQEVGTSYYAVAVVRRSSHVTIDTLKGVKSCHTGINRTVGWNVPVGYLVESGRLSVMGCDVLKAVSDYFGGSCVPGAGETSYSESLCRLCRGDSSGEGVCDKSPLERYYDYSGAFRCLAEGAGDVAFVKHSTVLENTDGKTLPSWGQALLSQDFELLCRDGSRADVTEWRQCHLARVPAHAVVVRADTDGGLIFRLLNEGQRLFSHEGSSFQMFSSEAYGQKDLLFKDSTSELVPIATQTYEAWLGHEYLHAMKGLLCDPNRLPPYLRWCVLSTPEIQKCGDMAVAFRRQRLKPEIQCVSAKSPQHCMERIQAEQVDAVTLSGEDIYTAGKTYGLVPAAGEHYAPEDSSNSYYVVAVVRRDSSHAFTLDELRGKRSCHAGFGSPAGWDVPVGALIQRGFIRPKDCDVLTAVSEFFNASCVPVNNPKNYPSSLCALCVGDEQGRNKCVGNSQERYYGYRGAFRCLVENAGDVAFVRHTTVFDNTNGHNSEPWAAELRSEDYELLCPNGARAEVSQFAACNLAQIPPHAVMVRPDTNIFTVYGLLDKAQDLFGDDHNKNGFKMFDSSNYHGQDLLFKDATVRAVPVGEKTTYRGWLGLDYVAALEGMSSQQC
In words: competition flow cytometry, RPMI-7951 cells stably expressing human CD228; competitor 5 nM AF647-labeled mL49; unlabeled antibody 0.06-1000 nM. For orientation: Flow cytometry measures light scatter and fluorescence of single cells or particles in a stream.

Experiment [12] has as its target T2, human CD228 on the cell surface (RPMI-7951 cells stably expressing human CD228; A375 cells) (human, UniProt P08582 20-709).
T2 construct: whole, on cells; also called p97; melanotransferrin
T2 sequence (looked up): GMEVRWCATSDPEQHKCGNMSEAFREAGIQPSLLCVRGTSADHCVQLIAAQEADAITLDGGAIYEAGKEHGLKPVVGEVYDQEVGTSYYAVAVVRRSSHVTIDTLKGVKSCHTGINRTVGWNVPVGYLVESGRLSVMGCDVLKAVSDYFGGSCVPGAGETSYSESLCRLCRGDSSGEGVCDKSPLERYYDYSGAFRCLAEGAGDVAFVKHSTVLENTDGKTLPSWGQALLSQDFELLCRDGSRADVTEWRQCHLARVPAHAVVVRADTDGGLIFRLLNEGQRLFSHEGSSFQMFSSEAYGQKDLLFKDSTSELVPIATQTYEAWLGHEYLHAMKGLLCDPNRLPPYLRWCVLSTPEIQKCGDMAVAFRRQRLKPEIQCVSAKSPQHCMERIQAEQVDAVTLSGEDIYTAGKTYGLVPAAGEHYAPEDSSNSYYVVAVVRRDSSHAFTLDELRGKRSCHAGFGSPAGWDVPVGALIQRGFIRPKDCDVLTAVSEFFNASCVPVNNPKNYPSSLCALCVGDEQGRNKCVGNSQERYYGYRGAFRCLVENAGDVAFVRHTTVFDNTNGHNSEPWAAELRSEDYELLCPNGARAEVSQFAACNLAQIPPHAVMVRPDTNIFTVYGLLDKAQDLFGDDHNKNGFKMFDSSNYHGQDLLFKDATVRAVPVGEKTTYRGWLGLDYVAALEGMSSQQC
The experiment can be described thus: saturation binding by flow cytometry on RPMI-7951 cells stably expressing human CD228; apparent KD. The method, then: (§1) The KD for each resulting antibody was then determined by a saturation binding assay. Briefly, 1×10⁵ RPMI-7951 cells stably expressing human CD228 were aliquoted per well of a 96-well v-bottom plates. Each CD228 antibody was added in concentrations ranging from 0.05 pM to 340 nM and incubated on ice for 60 minutes. Cells were pelleted and washed 3× with PBS/BSA followed by addition of 10 ug/ml of a PE labeled anti-human IgG goat secondary antibody and incubated on ice for an additional 60 minutes. Cells were pelleted and washed 3× with PBS/BSA and resuspended in 125 μL of PBS/BSA. Fluorescence was analyzed by flow cytometry, using percent of saturated fluorescent signal to determine percent bound and to subsequently calculate apparent KD. The binding curves for recombinant human anti-CD228 antibodies are shown in FIG. 13 and the KD for cL49ec (chimeric LA9 with an S239C mutation in the […] constant region), hL49 HALA G1, hL49 HALB G1, and hL49 HALC G1 are shown in Table 8. The antibody called “HALC,” “hL49,” or “hL49-HALC” which comprises heavy chain “HA” and the light chain “LC” was selected for use in all other experiments.

In experiment [13] the target is T2, human CD228 on the cell surface …. The experiment can be described thus: saturation binding by flow cytometry, RPMI-7951 cells stably expressing human CD228; PE anti-human IgG secondary; row 'ug/mL' of the drawn table headed 'kD'. As to the method:
as §1

Experiment [14] has the same target. In words: competition flow cytometry, RPMI-7951 cells stably expressing human CD228; competitor 5 nM AF647-labeled mL49; unlabeled antibody 0.06-1000 nM. The method, then:
(§2) Binding curves for each resulting antibody was determined by a competition binding assay. Briefly, 1×10⁵ RPMI-7951 cells stably expressing human CD228 were aliquoted per well of a 96-well v-bottom plates on ice. […] Cells were pelleted and washed 3 times with PBS/BSA. The cells were pelleted and resuspended in 125 μL of PBS/BSA. Fluorescence was analyzed by flow cytometry, using percent of saturated fluorescent signal to determine percent labeled murine CD228 mAb bound.

Experiment [15] has the same target. The description is as above. The method, then:
as §2
The source holds these as a separate data set.

Experiment [16] shares this target. The description is as above. The method, then: as §2
The source holds these as a separate data set.

Experiment [17] has the same target. Described as above. As to the method:
as §2
The source holds these as a separate data set.

In the case of cL235 (antibody), the EC50 in experiment [1] came to 0.749 nM; in experiment [2], 0.727 nM; in experiment [3], 0.838 nM; in experiment [4], 0.74 nM; in [5] it was 0.809 nM; in [6] it was 0.724 nM. The EC50 in experiment [7] was determined as 0.756 nM; in experiment [8], 0.767 nM; in [9] it was 0.757 nM; in experiment [10] it was 0.694 nM.

B1: hL49ec HCLA (antibody, V domains shown)
VH: QVQLQESGPGLVKPSETLSLTCTVSGDSITSGYWNWIRQFPGKGLEYMGYISDSGITYYNPSLKSRITISRDTSKNQYSLKLSFVTAADTAVYNCARRTLATYYAMDYWGQGTLVTVSS
VL: DFVMTQSPLSLPVTLGQPASISCRASQSLVHSNGNTYLHWFQQRPGQSPRRLIYRVSNRFSGVPDRFSGSGSGTDFTLKISRVEAEDVGVYYCSQSTHVPPTFGQGTKLEIK
Molecule B1 displayed an IC50 (read off the curve) in [11] of 60 nM.

B2: hL49ec HCLB (antibody, V domains shown)
VH: QVQLQESGPGLVKPSETLSLTCTVSGDSITSGYWNWIRQFPGKGLEYMGYISDSGITYYNPSLKSRITISRDTSKNQYSLKLSFVTAADTAVYNCARRTLATYYAMDYWGQGTLVTVSS
VL: DFVMTQSPLSLPVTLGQPASISCRASQSLVHSNGNTYLHWYQQRPGQSPRLLIYRVSNRFSGVPDRFSGSGSGTDFTLKISRVEAEDVGVYYCSQSTHVPPTFGQGTKLEIK
For B2, in experiment [11], the IC50 (read off the curve) was 20 nM.

B3: hL49 HALA G1 (antibody, V domains shown)
VH: QVQLQESGPGLVKPSETLSLTCTVSGDSITSGYWNWIRQPPGKGLEYIGYISDSGITYYNPSLKSRVTISRDTSKNQYSLKLSSVTAADTAVYYCARRTLATYYAMDYWGQGTLVTVSS
VL: DFVMTQSPLSLPVTLGQPASISCRASQSLVHSNGNTYLHWFQQRPGQSPRRLIYRVSNRFSGVPDRFSGSGSGTDFTLKISRVEAEDVGVYYCSQSTHVPPTFGQGTKLEIK
notes: Humanized L49 with heavy chain HA and light chain LA; 'G1' (IgG1)
As to B3, the Kd in experiment [12] is 5.3 nM; in experiment [13], 0.8 µg/mL.

B4: hL49ec HBLA (antibody, V domains shown)
VH: QVQLQESGPGLVKPSETLSLTCTVSGDSITSGYWNWIRQFPGKGLEYMGYISDSGITYYNPSLKSRITISRDTSKNQYSLKLSSVTAADTAVYYCARRTLATYYAMDYWGQGTLVTVSS
VL: DFVMTQSPLSLPVTLGQPASISCRASQSLVHSNGNTYLHWFQQRPGQSPRRLIYRVSNRFSGVPDRFSGSGSGTDFTLKISRVEAEDVGVYYCSQSTHVPPTFGQGTKLEIK
Molecule B4 returned an IC50 (read off the curve) in [11] of 40 nM.

B5: hL49ec HBLB (antibody, V domains shown)
VH: QVQLQESGPGLVKPSETLSLTCTVSGDSITSGYWNWIRQFPGKGLEYMGYISDSGITYYNPSLKSRITISRDTSKNQYSLKLSSVTAADTAVYYCARRTLATYYAMDYWGQGTLVTVSS
VL: DFVMTQSPLSLPVTLGQPASISCRASQSLVHSNGNTYLHWYQQRPGQSPRLLIYRVSNRFSGVPDRFSGSGSGTDFTLKISRVEAEDVGVYYCSQSTHVPPTFGQGTKLEIK
Regarding B5, the IC50 (read off the curve) in experiment [11] was found to be 30 nM.

B6: hL49ec HALA (antibody, V domains shown)
VH: QVQLQESGPGLVKPSETLSLTCTVSGDSITSGYWNWIRQPPGKGLEYIGYISDSGITYYNPSLKSRVTISRDTSKNQYSLKLSSVTAADTAVYYCARRTLATYYAMDYWGQGTLVTVSS
VL: DFVMTQSPLSLPVTLGQPASISCRASQSLVHSNGNTYLHWFQQRPGQSPRRLIYRVSNRFSGVPDRFSGSGSGTDFTLKISRVEAEDVGVYYCSQSTHVPPTFGQGTKLEIK
notes: Same variable regions as m5 (hL49 HALA G1); The sheet prints 'ec', so it is kept apart from the G1 form; also called HALA in the 'ec' format
Regarding B6, the “IC50 (read off the curve)” value in experiment [14] and in experiment [15] was roughly 40 nM throughout.

B7: hL49ec HALB (antibody, V domains shown)
VH: QVQLQESGPGLVKPSETLSLTCTVSGDSITSGYWNWIRQPPGKGLEYIGYISDSGITYYNPSLKSRVTISRDTSKNQYSLKLSSVTAADTAVYYCARRTLATYYAMDYWGQGTLVTVSS
VL: DFVMTQSPLSLPVTLGQPASISCRASQSLVHSNGNTYLHWYQQRPGQSPRLLIYRVSNRFSGVPDRFSGSGSGTDFTLKISRVEAEDVGVYYCSQSTHVPPTFGQGTKLEIK
notes: Same variable regions as m6 (hL49 HALB G1); The sheet prints 'ec', so it is kept apart from the G1 form; also called HALB in the 'ec' format
For B7, the “IC50 (read off the curve)” value in [15] lay in the range of 20 to 30 nM.

B8: hL49 HALB G1 (antibody, V domains shown)
VH: QVQLQESGPGLVKPSETLSLTCTVSGDSITSGYWNWIRQPPGKGLEYIGYISDSGITYYNPSLKSRVTISRDTSKNQYSLKLSSVTAADTAVYYCARRTLATYYAMDYWGQGTLVTVSS
VL: DFVMTQSPLSLPVTLGQPASISCRASQSLVHSNGNTYLHWYQQRPGQSPRLLIYRVSNRFSGVPDRFSGSGSGTDFTLKISRVEAEDVGVYYCSQSTHVPPTFGQGTKLEIK
notes: Humanized L49 with heavy chain HA and light chain LB; 'G1' (IgG1)
As to B8, the figures for the Kd in experiment [12] and in [13] were 7.8 nM and 1.2 µg/mL, respectively.

B9: cL49ec (chimeric L49 with an S239C mutation) (antibody, V domains shown)
VH: EVQLQESGPSLVKPSQTLSLTCSVTGDSITSGYWNWIRKFPGNKLEYMGYISDSGITYYNPSLKSRISITRDTSKNQYYLQLNFVTAEDTATYNCARRTLATYYAMDYWGQGTSVTVSS
VL: DFVMTQTPLSLPVSLGDQASISCRASQSLVHSNGNTYLHWYLQKPGQSPKLLIYRVSNRFSGVPDRFSGSGSGTDFTLKISRVEAEDLGVYFCSQSTHVPPTFGGGTKLEIK
notes: Human constant regions with S239C; also called chimeric LA9
On to B9, for which the results for the Kd in experiment [12] and in experiment [13] were 5.8 nM and 0.9 µg/mL, respectively. For the same molecule, the “IC50 (read off the curve)” value in experiment [14], in experiment [15], in experiment [16] and in experiment [17] was roughly 30 nM throughout.
